Test results reported in PMC3525766 (Journal of structural biology, 2012).

Target: the molecule itself
Experiment: cross-linking

B1: coiled-coil domain of human LRRFIP1 (LRRFIP1-CC) (domain or fragment)
chain: MDSLAEVEEKYKKAMVSNAQLDNEKTNFMYQVDTLKDMLLELEEQLAESRRQYEEKNKEFEREKHAHSILQFQFAEVKEALKQREEMLEK
B1 was tested, and the “stoichiometry N” value was 2.
